Assay [1] deals with T1, cynomolgus monkey Siglec15-his protein (cynomolgus monkey).
T1 construct: In house made; also called Cynomolgus Siglec15-his; cynomolgus Siglec15
T1 chain: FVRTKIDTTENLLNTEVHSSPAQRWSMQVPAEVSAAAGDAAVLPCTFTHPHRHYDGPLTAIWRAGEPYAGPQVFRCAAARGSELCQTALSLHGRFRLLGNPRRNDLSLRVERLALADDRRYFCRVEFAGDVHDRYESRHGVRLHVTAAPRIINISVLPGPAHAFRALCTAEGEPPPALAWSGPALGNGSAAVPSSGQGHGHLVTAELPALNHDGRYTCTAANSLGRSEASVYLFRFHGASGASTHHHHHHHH
The assay can be described thus: indirect ELISA on coated cynomolgus Siglec15-his. On the procedure: The anti-Siglec15 antibodies' cross-reactions to cynomolgus or mouse Siglec15 proteins were measured. Briefly, 96-well micro plates were coated with 100 μl of 2 μg/ml cynomolgus Siglec15-his protein (in house made with SEQ ID NO: 21), or 2 μg/ml mouse Siglec15-his protein (in house made with SEQ ID NO: 22) in carbonate/bicarbonate buffer (pH 9.6) for 2 hours at 37° C. ELISA plates were washed once with wash buffer (PBS+0.05% v/v Tween-20, PBST) and then blocked with 200 μl/well blocking buffer (5% w/v non-fatty milk in PBST) overnight at 4° C. Plates were washed 4 times and incubated with 100 μl serially diluted anti-Siglec15 antibodies of the disclosure or controls (starting at 66.7 nM, 5-fold serial dilution in PBST with 2.5% w/v non-fatty milk) for 40 minutes at 37° C. […] The reaction was stopped 4 minutes later at room temperature with 50 μl 1M H₂SO₄, and the absorbance of each well was read on a microplate reader using dual wavelength mode with 450 nm for TMB and 630 nm as the reference wavelength, then the OD (450-630) values were plotted against antibody concentration. Data was analyzed using Graphpad Prism software and EC₅₀ values were reported.
In general terms: In an ELISA, binding on a coated surface is turned into a signal by an enzyme label.

Assay [2] has as its target T2, human Siglec15 on human-siglec15-2D3-1E1 cells (human, UniProt Q6ZMC9 20-328).
T2 construct: whole, on cells; Transfected HEK-293 cells; also called cell surface human Siglec15
T2 sequence (looked up): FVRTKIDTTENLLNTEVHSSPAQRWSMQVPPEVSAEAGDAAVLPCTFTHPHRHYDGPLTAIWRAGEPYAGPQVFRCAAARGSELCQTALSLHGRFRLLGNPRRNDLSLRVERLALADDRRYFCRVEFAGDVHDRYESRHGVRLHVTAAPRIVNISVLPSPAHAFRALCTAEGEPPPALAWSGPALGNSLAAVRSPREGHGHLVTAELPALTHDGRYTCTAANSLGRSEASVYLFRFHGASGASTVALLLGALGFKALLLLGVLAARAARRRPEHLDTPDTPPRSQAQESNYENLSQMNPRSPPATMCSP
The assay can be described thus: cell based binding FACS on human-siglec15-2D3-1E1 cells. The protocol: The binding activities of the anti-Siglec15 antibodies to cell surface Siglec15 were tested by flow cytometry (FACS), using in-house prepared human-siglec15-2D3-1E1 cells expressing human Siglec15 (amino acid residues Met1-Pro328 of uniprot #Q6ZMC9) on cell membranes. The human-siglec15-2D3-1E1 cells were prepared by transfecting HEK-293 cells (ATCC #CRL-1573) with pCMV-T-P plasmids inserted with human Siglec15 coding sequence between EcoRI and XbaI sites, following the instruction of lipofectamine 3000 transfection reagent (Thermo Fisher). The human-siglec15-2D3-1E1 cells were harvested from cell culture flasks, washed twice and re-suspended in phosphate buffered saline (PBS) containing 2% v/v Fetal Bovine Serum (FACS buffer). 2×10⁵ cells per well in 96 well-plates were incubated in 100 μL serially diluted anti-Siglec15 antibodies or controls (starting at 66.67 nM, 5-fold serial dilution) in FACS buffer for 40 minutes on ice. […] Following a 40-minute incubation at 4° C. in dark, cells were washed three times and re-suspended in FACS buffer. Fluorescence was measured using a Becton Dickinson FACS Canto II-HTS equipment. Data was analyzed using Graphpad Prism software and EC₅₀ values were reported.

The target of assay [3] is T3, human Siglec15-mouse Fc protein (human).
T3 construct: In house made
T3 chain: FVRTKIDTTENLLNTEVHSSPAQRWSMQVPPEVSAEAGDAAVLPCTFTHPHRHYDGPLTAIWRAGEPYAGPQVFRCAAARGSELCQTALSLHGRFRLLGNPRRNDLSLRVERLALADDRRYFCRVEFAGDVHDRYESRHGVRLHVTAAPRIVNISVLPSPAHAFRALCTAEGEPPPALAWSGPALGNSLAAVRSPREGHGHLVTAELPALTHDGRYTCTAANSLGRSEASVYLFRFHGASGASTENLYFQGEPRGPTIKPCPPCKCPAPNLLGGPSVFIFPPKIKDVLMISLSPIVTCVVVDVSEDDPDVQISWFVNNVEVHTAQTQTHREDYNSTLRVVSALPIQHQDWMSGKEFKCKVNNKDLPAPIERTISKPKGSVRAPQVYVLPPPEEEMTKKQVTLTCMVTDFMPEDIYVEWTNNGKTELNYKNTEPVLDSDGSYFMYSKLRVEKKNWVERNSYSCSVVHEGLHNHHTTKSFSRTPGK
Put plainly: cell based blocking FACS: human Siglec15-mouse Fc in solution, blocked ligand human LRRC4C on LRRC4C-3F12-1B9 cells. On the procedure:
The activities of the anti-Siglec15 antibodies to block binding of Siglec15 protein to cell surface LRRC4C were evaluated by Flow Cytometry (FACS), using in house made LRRC4C-3F12-1B9 cells. Briefly, HEK-293 cells (ATCC #CRL-1573) were transfected with pCMV-T-P plasmid constructs with the nucleotide sequence encoding human LRRC4C (amino acid residues Met1-Ile640 of uniprot #Q9HCJ2) inserted between EcoRI and XbaI, following the instruction of lipofectamine 3000 transfection reagent (Thermo Fisher). A stable cell named LRRC4C-3F12-1B9 was chosen for subsequent cell based ligand-blocking assay.
Briefly, the anti-Siglec15 antibodies of the disclosure or controls were diluted with human Siglec15-mouse Fc protein (prepared in-house with SEQ ID NO: 26, 8 μg/ml […] in FACS buffer), starting at 66.67 nM with a 5-fold serial dilution, and incubated at room temperature for 40 minutes. Then, LRRC4C-3F12-1B9 cells were harvested from cell culture flasks, washed twice and re-suspended in PBS containing 2% v/v Fetal Bovine Serum (FACS buffer). Then, 1×10⁵ cells per well in 96 well-plates were incubated in 100 μL of the antibody/Siglec15-mouse Fc mixtures for 40 minutes at 4° C. […] Cells were washed twice and re-suspended in FACS buffer. Fluorescence was measured using a Becton Dickinson FACS Canto II-HTS equipment. Data was analyzed using Graphpad Prism software and IC₅₀ values were reported.

B1: anti-Siglec15 benchmark (ch5G12) (antibody, human IgG1, kappa, V domains shown)
VH: QVQLQQPGAELVKPGASVKMSCKASGYTFTSYWITWVIQRPGQGLEWIGDIYCGSDTMHYNEKFKNKATLTVDTSSSTAYMQLSSLTSEDSAVYYCARWWDYGSSYDYFDYWGQGTTLTVSS
VL: DIKMTQSPSSMYASLGERVTITCKASQDINSYLSWFQQKPGKSPKTLIYRANRLVDGVPSRFSGSGSGQDYSLTISSLEYEDMGIYYCLQYDEFPYTFGGGTKLEIKR
notes: ch5G12 (US 20190202912A1); also called BM; Siglec15-ch5G9
In general, EC50 refers to the concentration that produces a half-maximal response. As usually defined, the IC50 is the concentration at which inhibition is half-maximal. With B1, the EC50 in assay [1] was 0.307 nM; in assay [2], 15.5 nM. Moreover, the IC50 in assay [3] turned out to be 0.639 nM.

The record behind these values is patent publication US20230106715A1 (BIOSION, published 2023).
